Molecular target: human DPP6 protein (human, UniProt P42658 117-865, limits assumed)
Test: affinity versus the human DPP6 protein; method not stated

Chain of human DPP6 protein (P42658 117-865 limits assumed): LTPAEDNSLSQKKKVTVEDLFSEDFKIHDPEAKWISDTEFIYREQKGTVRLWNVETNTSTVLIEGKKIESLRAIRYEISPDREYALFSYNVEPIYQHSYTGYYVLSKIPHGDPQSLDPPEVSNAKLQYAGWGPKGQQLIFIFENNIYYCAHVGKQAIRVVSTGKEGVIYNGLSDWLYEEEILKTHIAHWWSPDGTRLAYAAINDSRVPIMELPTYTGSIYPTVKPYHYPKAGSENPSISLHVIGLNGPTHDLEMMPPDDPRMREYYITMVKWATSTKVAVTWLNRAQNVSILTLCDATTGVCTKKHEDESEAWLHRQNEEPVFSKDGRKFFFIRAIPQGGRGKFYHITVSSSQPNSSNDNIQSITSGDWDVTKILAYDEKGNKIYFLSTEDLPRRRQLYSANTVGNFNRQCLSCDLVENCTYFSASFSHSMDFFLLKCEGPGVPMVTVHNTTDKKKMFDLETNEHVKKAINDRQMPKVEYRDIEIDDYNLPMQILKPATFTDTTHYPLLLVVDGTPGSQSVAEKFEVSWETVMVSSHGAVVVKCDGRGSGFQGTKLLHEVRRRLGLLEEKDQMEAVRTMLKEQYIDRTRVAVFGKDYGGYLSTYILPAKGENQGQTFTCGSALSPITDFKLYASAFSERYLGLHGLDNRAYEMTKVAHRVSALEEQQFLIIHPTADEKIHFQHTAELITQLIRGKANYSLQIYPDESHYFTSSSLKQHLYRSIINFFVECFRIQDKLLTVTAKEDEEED

Kd: 1.2 nM
B1: nanobody 4hD29 (VHH)
VHH: QVQLQESGGGLVQPGGSLRLSCAASGFTFSSNYMTWVRQAPGKGPEWVSGINPDGSSTYYADSVKGRFTISRDNAKNTLYLQMNSLKSEDTALYKCATGAAPRIPTTLRGQGTQVTVSS
notes: also called Nb 4hD29; 4hD29 Nb

Reference: US20190145987A1 (UNIVERSIT LIBRE DE BRUXELLES, published 2019)
